Tests used:
Assay in all cases: ELONA; RPB-ELISA
[1] = target: T1, v3.1_PPR17 (Artificial Sequence); details: tags: luciferase fusion; label: 5'-biotin
T1 chain: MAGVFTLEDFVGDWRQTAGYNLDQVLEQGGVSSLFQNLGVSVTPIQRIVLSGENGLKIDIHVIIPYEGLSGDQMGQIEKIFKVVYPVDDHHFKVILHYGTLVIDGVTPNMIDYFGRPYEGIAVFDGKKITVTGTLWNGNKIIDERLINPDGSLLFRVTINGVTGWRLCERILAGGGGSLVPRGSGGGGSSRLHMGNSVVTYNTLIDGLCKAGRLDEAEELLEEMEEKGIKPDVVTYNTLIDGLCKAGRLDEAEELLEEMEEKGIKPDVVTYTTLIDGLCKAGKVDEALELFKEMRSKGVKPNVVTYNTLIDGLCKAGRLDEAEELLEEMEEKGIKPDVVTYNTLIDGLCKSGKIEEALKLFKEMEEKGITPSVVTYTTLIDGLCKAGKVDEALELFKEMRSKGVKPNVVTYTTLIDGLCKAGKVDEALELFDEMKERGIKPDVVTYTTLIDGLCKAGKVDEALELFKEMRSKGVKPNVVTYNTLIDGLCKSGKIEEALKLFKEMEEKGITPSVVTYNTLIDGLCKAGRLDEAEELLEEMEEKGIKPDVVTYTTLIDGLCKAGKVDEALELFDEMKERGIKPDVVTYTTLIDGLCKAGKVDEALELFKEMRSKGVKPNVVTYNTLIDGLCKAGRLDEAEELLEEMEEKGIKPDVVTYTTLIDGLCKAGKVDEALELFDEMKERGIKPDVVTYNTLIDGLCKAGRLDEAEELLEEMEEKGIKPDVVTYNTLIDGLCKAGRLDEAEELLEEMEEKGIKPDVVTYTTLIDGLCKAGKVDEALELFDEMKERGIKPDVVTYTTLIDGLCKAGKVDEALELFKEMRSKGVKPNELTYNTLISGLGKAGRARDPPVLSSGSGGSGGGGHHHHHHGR

[2] = target: T2, NL_v2_PPR18 (Artificial Sequence); details: tags: N-term luciferase, C-term 6xHis; label: 5'-biotin
T2 chain: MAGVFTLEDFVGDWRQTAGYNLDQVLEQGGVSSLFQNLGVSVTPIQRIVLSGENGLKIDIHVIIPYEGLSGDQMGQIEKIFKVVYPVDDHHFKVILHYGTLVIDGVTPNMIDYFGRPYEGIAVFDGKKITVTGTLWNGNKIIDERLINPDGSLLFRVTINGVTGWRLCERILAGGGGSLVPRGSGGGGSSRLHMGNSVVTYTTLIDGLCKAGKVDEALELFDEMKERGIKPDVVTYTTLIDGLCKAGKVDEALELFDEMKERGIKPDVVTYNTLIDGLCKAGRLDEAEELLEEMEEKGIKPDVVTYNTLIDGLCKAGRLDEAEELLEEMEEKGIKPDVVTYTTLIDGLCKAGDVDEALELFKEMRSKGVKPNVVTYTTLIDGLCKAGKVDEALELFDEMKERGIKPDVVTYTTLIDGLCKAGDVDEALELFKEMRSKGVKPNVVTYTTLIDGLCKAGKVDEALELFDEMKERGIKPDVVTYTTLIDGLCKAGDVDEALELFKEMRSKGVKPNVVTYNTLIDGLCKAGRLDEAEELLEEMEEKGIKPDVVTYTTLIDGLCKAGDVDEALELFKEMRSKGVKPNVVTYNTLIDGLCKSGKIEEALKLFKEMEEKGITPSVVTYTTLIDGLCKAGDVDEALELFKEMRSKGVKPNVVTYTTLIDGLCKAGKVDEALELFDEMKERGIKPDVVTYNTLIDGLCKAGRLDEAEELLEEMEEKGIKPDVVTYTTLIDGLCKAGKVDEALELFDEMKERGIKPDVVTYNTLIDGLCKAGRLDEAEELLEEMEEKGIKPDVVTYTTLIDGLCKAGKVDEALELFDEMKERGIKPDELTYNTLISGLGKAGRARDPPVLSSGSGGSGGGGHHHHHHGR

[3] = target: T3, v3.1_PPR18 (Artificial Sequence); details: tags: luciferase fusion; label: 5'-biotin
T3 chain: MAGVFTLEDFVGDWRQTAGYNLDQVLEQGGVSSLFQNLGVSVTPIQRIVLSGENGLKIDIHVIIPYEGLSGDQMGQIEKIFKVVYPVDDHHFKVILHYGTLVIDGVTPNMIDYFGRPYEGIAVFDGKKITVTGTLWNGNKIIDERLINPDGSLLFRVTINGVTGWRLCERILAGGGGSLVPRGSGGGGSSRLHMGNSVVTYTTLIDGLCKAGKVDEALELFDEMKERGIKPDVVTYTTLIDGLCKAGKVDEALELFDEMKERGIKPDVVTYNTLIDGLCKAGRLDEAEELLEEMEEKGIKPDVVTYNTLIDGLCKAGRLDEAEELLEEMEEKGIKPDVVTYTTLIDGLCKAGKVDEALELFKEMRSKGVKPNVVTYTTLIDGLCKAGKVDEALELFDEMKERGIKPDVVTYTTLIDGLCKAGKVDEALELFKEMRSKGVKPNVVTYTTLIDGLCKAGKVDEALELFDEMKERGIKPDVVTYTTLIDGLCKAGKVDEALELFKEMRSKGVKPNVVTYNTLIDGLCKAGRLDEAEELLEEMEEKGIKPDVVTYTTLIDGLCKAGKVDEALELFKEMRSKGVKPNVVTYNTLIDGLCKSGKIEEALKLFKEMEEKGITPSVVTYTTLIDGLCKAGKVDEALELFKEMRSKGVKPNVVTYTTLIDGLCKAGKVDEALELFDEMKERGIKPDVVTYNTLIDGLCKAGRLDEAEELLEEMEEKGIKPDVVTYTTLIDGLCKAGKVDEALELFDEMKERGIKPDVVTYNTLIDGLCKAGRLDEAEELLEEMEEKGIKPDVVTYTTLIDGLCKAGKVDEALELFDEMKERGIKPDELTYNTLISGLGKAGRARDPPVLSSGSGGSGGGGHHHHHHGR

[4] = target: T4, v3.1_PPR16 (Artificial Sequence); details: tags: luciferase fusion; label: 5'-biotin
T4 chain: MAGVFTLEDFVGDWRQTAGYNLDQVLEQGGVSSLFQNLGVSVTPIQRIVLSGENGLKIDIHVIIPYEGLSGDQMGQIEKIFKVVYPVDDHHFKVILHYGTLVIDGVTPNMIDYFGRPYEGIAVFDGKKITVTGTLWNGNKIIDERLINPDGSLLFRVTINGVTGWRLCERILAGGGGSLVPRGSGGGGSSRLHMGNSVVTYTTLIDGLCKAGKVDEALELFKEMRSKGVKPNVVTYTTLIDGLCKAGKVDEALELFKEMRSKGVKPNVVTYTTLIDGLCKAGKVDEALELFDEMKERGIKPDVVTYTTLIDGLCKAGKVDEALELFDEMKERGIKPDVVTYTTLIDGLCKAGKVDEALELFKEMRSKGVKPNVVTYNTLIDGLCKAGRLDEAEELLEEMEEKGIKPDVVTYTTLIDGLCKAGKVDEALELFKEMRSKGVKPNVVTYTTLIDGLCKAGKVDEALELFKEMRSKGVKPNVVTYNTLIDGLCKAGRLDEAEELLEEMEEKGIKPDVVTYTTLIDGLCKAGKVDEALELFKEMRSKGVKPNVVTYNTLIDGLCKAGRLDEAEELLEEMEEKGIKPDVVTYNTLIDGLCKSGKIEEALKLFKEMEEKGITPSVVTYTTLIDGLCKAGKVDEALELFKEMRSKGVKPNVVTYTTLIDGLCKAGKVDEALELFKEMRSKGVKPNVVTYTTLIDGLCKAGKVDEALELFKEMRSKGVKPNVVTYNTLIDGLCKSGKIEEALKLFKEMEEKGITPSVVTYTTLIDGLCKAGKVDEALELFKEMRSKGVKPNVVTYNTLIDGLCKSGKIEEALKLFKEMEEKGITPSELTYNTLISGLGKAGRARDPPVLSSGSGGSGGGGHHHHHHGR

[5] = target: T5, NL_v2_PPR16 (Artificial Sequence); details: tags: N-term luciferase, C-term 6xHis; label: 5'-biotin
T5 chain: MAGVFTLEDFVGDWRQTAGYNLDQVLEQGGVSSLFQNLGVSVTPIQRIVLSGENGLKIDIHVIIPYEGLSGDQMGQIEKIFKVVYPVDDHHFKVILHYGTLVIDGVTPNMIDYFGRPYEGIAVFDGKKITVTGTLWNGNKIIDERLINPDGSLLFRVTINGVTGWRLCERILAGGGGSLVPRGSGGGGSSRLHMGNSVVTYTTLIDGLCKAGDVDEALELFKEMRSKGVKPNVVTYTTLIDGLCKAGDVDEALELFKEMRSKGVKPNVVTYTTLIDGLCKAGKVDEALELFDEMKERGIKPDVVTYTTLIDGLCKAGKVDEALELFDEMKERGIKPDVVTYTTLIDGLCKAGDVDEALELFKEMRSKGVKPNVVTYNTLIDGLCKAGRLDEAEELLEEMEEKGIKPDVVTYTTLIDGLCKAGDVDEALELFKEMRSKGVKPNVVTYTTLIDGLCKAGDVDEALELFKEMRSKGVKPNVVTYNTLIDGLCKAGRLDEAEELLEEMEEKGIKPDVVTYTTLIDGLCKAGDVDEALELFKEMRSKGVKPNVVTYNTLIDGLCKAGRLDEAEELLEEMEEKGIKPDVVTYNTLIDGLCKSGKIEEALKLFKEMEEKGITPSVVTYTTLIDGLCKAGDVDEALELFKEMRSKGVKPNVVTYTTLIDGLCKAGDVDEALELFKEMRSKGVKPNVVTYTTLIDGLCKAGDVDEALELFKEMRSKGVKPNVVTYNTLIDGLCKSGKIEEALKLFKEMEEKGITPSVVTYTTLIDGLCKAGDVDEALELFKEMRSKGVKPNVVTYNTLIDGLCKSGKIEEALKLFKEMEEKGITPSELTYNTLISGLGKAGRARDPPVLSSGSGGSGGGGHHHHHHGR

Binder: GACAUGCUUAUCAGACUGAUGUUGAGACUG (ssRNA) [RNA_17]
- binding signal [1]: 3.3e+07 luminescence

Binder: GACAUGCGGUUAGAGAUACAGUGUGGACUG (ssRNA) [RNA_18]
- binding signal [2]: 1.1e+07 luminescence
- binding signal [3]: 2.9e+07 luminescence

Binder: GACAUGCAAGGAUAAUAUCAAACACGACUG (ssRNA) [RNA_16]
- binding signal [4]: 6.3e+07 luminescence
- binding signal [5]: 2.8e+07 luminescence

— patent US20220289795, “EFFICIENT METHOD FOR PREPARING PPR PROTEIN AND USE OF THE SAME” (EditForce, Inc., published 2022)
